Experimental data reported in publication PMC6791870, “Switch of the interactions between the ribosomal stalk and EF1A in the GTP- and GDP-bound conformations” (Scientific Reports, 2019).
Primed or numbered codes have the meaning given here. Where no end group is shown, it is not given here. FITC′ = fluorescein isothiocyanate label

Assays:
Details in all cases: both partners purified
[1] = target: T1, Pyrococcus horikoshii elongation factor aEF1A (PhoEF1A) (P. horikoshii, UniProt O59153 1-428); experiment: pull-down; MBP-P1 fusion held on amylose resin; EF1A (1,000 pmol), Pelota (1,000 pmol) and equal amounts of MBP-P1 in 100 µl PD buffer (25 mM Tris-HCl pH 8.0, 200 mM NaCl, 10 mM MgCl2, 1 mM GTP), 4 °C, 90 min; eluted with 50 mM maltose; SDS-PAGE, CBB staining
T1 construct: elongation factor 1-alpha (aEF1A) of Pyrococcus horikoshii; the nucleotide is named in the assay's format; also called PhoEF1A•GTP; PhoEF1A•GDP
T1 sequence: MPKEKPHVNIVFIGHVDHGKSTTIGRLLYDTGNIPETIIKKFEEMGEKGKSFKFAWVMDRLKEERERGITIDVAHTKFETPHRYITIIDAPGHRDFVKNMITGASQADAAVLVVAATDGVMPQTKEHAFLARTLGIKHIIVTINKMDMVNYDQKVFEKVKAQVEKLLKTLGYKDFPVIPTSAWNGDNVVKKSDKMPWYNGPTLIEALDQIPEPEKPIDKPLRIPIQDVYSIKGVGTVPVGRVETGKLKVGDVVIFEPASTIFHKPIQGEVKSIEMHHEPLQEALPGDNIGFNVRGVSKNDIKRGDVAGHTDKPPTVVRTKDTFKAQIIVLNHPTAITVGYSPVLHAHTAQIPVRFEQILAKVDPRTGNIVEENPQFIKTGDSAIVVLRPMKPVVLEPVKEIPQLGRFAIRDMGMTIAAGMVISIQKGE

[2] = target: T2, Aeropyrum pernix elongation factor aEF1A (ApeEF1A) (Aeropyrum pernix, UniProt Q9YAV0 1-437); experiment: as above
T2 construct: elongation factor 1-alpha (aEF1A) of Aeropyrum pernix; also called ApeEF1A•GTP; wild type ApeEF1A
T2 sequence (looked up): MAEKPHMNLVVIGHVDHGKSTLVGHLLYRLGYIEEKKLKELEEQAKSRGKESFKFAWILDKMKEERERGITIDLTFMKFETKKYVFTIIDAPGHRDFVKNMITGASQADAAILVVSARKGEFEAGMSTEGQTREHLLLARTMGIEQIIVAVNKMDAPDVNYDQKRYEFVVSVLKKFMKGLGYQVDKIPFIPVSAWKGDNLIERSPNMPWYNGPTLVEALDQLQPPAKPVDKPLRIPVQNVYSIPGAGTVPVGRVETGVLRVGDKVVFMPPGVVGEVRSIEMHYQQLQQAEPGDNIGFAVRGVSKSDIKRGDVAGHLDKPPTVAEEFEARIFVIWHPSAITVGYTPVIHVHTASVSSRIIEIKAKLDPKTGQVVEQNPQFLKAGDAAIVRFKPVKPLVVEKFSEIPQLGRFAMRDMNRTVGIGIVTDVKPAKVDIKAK

[3] = target: T2, Aeropyrum pernix elongation factor …; experiment: crystal structure; ApeP1C17•ApeEF1A•GTP•ApePelota complex, sitting drop vapor diffusion at 20 °C, 3.0 Å
[4] = target: T1, Pyrococcus horikoshii elongation factor …; experiment: fluorescence polarisation; FITC-labelled PhoP1C14 with increasing PhoEF1A•GDP complex; same assay as for the GTP complex
[5] = target: T3, PhoEF1A•GTP•PfuPelota complex (P. horikoshii | Pyrococcus furiosus, UniProt O59153 1-428; Q8U150 1-356); experiment: fluorescence polarisation; FITC-labelled peptide (50 nM) with 0-160 µM PhoEF1A•GTP•PfuPelota complex in FP buffer (20 mM HEPES-KOH pH 7.6, 10 mM MgCl2, 150 mM KCl, 0.1 mg/ml BSA), 25 °C; one site specific binding fit
T3 construct: aPelota of Pyrococcus furiosus; Complex of m2 (GTP form) and m3, titrated as a complex in fluorescence polarisation; also called aEF1A•GTP•aPelota; source: E. coli, each protein purified, then complexed with GTP
T3 sequence 1: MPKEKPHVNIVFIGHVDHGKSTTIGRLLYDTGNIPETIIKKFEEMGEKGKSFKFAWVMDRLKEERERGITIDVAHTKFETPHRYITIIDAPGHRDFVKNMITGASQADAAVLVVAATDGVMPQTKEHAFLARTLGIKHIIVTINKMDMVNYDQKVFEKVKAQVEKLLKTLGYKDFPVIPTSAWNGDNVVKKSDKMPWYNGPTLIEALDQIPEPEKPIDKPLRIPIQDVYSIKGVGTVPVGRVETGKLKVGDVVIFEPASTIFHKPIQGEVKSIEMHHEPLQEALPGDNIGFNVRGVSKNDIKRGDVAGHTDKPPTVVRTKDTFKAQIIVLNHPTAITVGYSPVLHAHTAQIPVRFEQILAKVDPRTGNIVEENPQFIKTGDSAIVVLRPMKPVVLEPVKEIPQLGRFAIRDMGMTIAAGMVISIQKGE
T3 sequence 2: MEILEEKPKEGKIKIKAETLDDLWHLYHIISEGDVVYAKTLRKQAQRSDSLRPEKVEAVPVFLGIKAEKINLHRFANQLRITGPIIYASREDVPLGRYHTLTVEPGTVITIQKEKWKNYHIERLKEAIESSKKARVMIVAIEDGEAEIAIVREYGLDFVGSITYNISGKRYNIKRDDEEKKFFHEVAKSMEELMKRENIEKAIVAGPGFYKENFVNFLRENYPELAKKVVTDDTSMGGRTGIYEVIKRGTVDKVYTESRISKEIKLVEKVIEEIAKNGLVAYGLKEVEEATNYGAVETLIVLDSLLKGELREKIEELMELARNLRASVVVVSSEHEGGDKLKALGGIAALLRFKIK

binding result [1] | binding result [3] | Binder | further results
binds |  | SEEEALAGLSALFG (domain or fragment, P. horikoshii, C-terminal 14 residues of P. horikoshii ribosomal stalk protein aP1; made by removing residues 61-94 from pMAL-c4x-aP1[61-108]; the 14 residues are identical in both species; Vector pMAL-c4x; also called MBP-PfuP1C14; not shown: MBP, N-terminal, kept) [maltose-binding protein fused to the C-terminal 14 amino acid sequence of PhoP1 (MBP-PhoP1C14)] | 
 | binds | KKEEEVDLSGLSGMFGF (C-terminal 17 residues of Aeropyrum pernix ribosomal stalk protein aP1 (ends at F111); also called aP1C17; aP1-CTD; source: synthetic peptide (Hokkaido System Science)) [C-terminal 17-mer peptide of A. pernix aP1 (ApeP1C17)] | 

More lines, now with the values behind:

Binder | binding result [1] | binding result [3] | further results
Pyrococcus furiosus aPelota (PfuPelota) (natural protein, UniProt Q8U150 1-356, looked up, aPelota of Pyrococcus furiosus) MEILEEKPKEGKIKIKAETLDDLWHLYHIISEGDVVYAKTLRKQAQRSDSLRPEKVEAVPVFLGIKAEKINLHRFANQLRITGPIIYASREDVPLGRYHTLTVEPGTVITIQKEKWKNYHIERLKEAIESSKKARVMIVAIEDGEAEIAIVREYGLDFVGSITYNISGKRYNIKRDDEEKKFFHEVAKSMEELMKRENIEKAIVAGPGFYKENFVNFLRENYPELAKKVVTDDTSMGGRTGIYEVIKRGTVDKVYTESRISKEIKLVEKVIEEIAKNGLVAYGLKEVEEATNYGAVETLIVLDSLLKGELREKIEELMELARNLRASVVVVSSEHEGGDKLKALGGIAALLRFKIK | binds |  | 
EEEVDLSGLSGMFGF (domain or fragment, Vector pMAL-c4x, EcoRI-PstI; not shown: MBP, N-terminal, kept) [N-terminal MBP fused with the C-terminal 15 amino acid residues of A. pernix aP1 (MBP-ApeP1C15)] |  |  | binding result [2]: binds
Aeropyrum pernix aPelota (ApePelota) (natural protein, A. pernix, UniProt Q9YAZ5 1-356, looked up, aPelota of Aeropyrum pernix) MRVEVLDNKRRIVRLRPESEEDLWLLRITLRPGDVVRIRTSRDVPVGSGRKERVVMTLRIRLDSIEFQPFTGKLRISGIVVEGPDEFGVKGRRHSTAVSIGTWLVVERDKGWSEQELERLASGRARGTAVIAAVDYDEFALAVLAGHGMKILEDTSARLPGKDDPSREQEVEKYVDRAAKRIVEEAARHRSPIAVIAGPGQLKTSVAEKVQRAMPSLKVATVDTSMGGVAGVREALRRESVTRILRELSIVEAEGVLEEFLRRIAKSRDTVAYTPGEVLAVARMGAVDTVLLVDTLLHSPDDAVREAVDEALRLVESMGGRVIIIPGDSPAGERLVSFGGVIALLRYPVPQEARRL |  | binds | 
{FITC′}-SEEEALAGLSALFG (C-terminal 14 residues of P. horikoshii ribosomal stalk protein aP1 (last residues L106, F107, G108); also called WT; C-terminal peptide; source: synthetic peptide (Hokkaido System Science)) [C-terminal 14-mer peptide of P. horikoshii aP1 (PhoP1C14), FITC-labelled] |  |  | Kd [4]: 10.4 µM; Kd [5]: 23.6 µM
